Measured values as given in US20220056094A1 (JIANGSU HENGRUI MEDICINE, published 2022).
Residue numbers refer to the chain shown, from its start. Numbers in names are those of the source.

T1: high-affinity receptor IL-2Rα/β/γ on CTLL2 cells (mouse-derived cell line) (mouse, UniProt P01590 22-268; P16297 27-539; P34902 23-369)
T1 sequence (looked up) 1: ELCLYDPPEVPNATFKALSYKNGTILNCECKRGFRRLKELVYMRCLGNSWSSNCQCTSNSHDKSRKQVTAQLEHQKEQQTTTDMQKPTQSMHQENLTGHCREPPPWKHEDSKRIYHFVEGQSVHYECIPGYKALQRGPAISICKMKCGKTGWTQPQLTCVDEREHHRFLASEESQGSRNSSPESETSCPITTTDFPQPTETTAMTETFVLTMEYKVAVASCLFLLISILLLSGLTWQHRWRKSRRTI
T1 sequence (looked up) 2: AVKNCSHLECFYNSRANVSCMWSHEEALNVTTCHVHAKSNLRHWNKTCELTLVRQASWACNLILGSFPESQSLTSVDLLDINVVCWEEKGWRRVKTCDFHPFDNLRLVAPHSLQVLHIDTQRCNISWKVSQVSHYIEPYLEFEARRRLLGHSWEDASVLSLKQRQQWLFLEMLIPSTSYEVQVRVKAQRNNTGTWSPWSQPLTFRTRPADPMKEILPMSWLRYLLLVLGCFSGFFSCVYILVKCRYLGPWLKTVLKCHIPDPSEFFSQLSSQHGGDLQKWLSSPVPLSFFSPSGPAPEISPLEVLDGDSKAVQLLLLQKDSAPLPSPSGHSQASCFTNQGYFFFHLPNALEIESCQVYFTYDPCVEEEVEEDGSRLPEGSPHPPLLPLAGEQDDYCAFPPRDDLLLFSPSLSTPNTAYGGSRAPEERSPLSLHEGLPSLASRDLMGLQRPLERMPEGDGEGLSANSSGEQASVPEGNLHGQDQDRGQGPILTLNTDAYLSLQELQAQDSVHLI
T1 sequence (looked up) 3: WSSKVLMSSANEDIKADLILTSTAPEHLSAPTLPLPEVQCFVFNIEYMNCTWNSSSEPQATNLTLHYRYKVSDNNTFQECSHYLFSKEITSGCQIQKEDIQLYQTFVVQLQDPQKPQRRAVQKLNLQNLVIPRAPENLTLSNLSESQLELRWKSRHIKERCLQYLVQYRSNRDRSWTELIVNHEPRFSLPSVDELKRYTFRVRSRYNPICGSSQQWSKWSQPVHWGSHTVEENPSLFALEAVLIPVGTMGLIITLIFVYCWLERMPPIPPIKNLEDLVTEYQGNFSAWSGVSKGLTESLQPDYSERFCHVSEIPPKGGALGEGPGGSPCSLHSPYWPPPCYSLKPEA

T2: medium-affinity receptor IL-2Rβ/γ on human cells (Mo7e cell line; human CD8+T and NK cells) (human, UniProt P14784 27-551; P31785 23-369)
T2 sequence (looked up) 1: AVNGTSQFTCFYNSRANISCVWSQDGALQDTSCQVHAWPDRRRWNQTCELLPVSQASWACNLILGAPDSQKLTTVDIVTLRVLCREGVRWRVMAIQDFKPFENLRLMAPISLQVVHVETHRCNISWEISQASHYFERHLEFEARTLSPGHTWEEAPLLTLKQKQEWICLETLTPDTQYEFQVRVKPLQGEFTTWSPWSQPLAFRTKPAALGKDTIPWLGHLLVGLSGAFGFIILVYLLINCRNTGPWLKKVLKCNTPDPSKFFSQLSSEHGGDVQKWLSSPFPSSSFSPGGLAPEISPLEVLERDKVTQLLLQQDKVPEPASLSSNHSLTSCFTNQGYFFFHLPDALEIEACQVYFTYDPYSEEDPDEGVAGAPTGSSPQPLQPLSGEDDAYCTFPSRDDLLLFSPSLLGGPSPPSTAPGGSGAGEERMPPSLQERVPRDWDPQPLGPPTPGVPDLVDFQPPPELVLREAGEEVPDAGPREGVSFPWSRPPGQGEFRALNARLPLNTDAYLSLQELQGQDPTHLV
T2 sequence (looked up) 2: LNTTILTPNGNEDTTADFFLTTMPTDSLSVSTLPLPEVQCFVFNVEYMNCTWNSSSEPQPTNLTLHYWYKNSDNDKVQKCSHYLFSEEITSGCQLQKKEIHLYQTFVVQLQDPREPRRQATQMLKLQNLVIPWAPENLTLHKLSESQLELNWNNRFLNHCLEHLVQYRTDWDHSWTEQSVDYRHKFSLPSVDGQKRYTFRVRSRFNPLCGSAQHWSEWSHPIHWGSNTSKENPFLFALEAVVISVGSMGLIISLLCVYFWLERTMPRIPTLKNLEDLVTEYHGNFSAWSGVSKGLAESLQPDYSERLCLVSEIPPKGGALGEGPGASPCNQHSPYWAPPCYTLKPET

T3: IL-2 receptor IL-2Rα/β/γ on human peripheral blood Treg cells (human, UniProt P01589 22-272; P14784 27-551; P31785 23-369)
T3 sequence (looked up) 1: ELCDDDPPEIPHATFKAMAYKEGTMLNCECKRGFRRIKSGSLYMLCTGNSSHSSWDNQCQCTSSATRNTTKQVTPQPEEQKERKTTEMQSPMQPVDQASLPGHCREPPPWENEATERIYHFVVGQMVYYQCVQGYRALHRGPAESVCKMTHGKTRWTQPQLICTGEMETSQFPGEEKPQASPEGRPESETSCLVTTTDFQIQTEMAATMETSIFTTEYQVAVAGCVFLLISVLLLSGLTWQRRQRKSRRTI
T3 sequence (looked up) 2: T2 sequence (looked up) 1
T3 sequence (looked up) 3: T2 sequence (looked up) 2

T4: his-tagged human IL-2Rα recombinant protein (SinoBiological, Cat #10165-H08H) (human, UniProt P01589 22-213)
T4 construct: Bought protein; also called IL-2Rα (His Tag)
T4 sequence: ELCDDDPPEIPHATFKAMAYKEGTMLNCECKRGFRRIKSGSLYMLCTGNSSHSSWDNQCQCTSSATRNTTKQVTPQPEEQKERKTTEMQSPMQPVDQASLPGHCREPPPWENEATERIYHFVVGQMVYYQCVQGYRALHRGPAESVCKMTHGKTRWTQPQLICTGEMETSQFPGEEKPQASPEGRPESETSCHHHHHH

B1: IL-2-03 (Q11C/L132C) (ligand)
chain: MAPTSSSTKKTCLQLEHLLLDLQMILNGINNYKNPKLTRMLTFKFYMPKKATELKHLQCLEEELKPLEEVLNLAQSKNFHLRPRDLISNINVIVLELKGSETTFMCEYADETATIVEFLNRWITFAQSIISTCT
notes: The entry already carries the mutations and C125A and begins with M. Made in E. coli
B2: IL-2-07 (F42A/Y45A) (ligand)
chain: B1 chain with C12Q, F43A, Y46A, C133L
notes: as for B1
B3: IL-2-05 (G27C/F78C) (ligand)
chain: B1 chain with C12Q, G28C, F79C, C133L
notes: as for B1
B4: IL-2-08 (F42A/L72G) (ligand)
chain: B1 chain with C12Q, F43A, L73G, C133L
notes: as for B1
B5: IL-2-09 (Y45A/L72G) (ligand)
chain: B1 chain with C12Q, Y46A, L73G, C133L
notes: as for B1
B6: IL-2-04 (L70C/P82C) (ligand)
chain: B1 chain with C12Q, L71C, P83C, C133L
notes: as for B1
B7: IL-2-06 (… at positions 29-44 mutated into QSMHIDATL) (ligand)
chain: MAPTSSSTKKTQLQLEHLLLDLQMILNGIQSMHIDATLYMPKKATELKHLQCLEEELKPLEEVLNLAQSKNFHLRPRDLISNINVIVLELKGSETTFMCEYADETATIVEFLNRWITFAQSIISTLT
notes: The entry already carries the replacement and C125A and begins with M. Made in E. coli
B8: IL-2-22 (N26Q/N29S/F42A/N71Q/L72G) (ligand)
chain: B1 chain with C12Q, N27Q, N30S, F43A, N72Q, L73G, C133L
B9: IL-2-10 (N26Q/N30S/F42A/L72G) (ligand)
chain: B1 chain with C12Q, N27Q, N31S, F43A, L73G, C133L
notes: as for B1
B10: PEGylated IL-2-24 (ligand)
chain: B1 chain with C12Q, N27Q, N30S, N89R, C133L
modifications: mono-PEGylated with 20 kDa mPEG-butyraldehyde (sodium cyanoborohydride); site not stated

Biological target: T1, high-affinity receptor IL-2Rα/β/γ on …
Test: cell-based or functional assay

relative biological activity (CTLL2 cell proliferation) [%]	Binder
162	B1
4	B2
229	B3
7	B4
2	B5
176	B6
4	B7

Biological target: T1, high-affinity receptor IL-2Rα/β/γ on …
Test: cell-based or functional assay
Remark: another data set of the same source

EC50 (CTLL2 cell proliferation) [nM]	relative biological activity (CTLL2 cell proliferation) [%]	Binder
5.73	0.9	B8
4.8	1	B9

Biological target: T2, medium-affinity receptor IL-2Rβ/γ on …
Test: cell-based or functional assay

EC50 (Mo7e cell proliferation) [nM]	relative biological activity (Mo7e cell proliferation) [%]	Binder
2.84	86	B8
1.78	137	B9

Biological target: T1, high-affinity receptor IL-2Rα/β/γ on …
Test: cell-based or functional assay
Remark: another data set of the same source

EC50 (STAT5 phosphorylation in CTLL2 cells) [nM]	relative biological activity (STAT5 phosphorylation in CTLL2 cells) [%]	Binder
2.45	0.41	B2
3.93	0.25	B4
4.02	0.25	B5

Biological target: T3, IL-2 receptor IL-2Rα/β/γ on human …
Test: cell-based or functional assay

EC50 (STAT5 phosphorylation in human Treg cells) [nM]	relative biological activity (STAT5 phosphorylation in human Treg cells) [%]	Binder
6.02	0.007	B10

Biological target: T5, IL-2Rβ/γ-Fc heterodimer (IL-2Rβ-Fc-hole with IL-2Rγ-Fc-knob)
T5 construct: Co-expressed in HEK293 cells and purified with Protein A and Superdex 200
T5 sequence (chain, as listed by the source limits assumed, chain 1 of 2): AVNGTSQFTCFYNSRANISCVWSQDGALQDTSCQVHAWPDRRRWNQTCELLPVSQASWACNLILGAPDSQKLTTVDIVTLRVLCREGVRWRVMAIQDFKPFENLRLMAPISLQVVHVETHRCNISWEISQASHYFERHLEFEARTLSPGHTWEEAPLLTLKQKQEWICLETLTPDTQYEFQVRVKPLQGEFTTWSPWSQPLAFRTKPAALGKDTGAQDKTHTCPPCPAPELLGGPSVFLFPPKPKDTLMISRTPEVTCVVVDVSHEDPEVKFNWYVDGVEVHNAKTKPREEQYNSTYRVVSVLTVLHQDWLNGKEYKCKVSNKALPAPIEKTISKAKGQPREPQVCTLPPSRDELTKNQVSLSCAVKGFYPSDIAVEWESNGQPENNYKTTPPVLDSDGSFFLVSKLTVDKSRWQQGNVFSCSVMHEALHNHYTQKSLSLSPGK
T5 sequence (chain, as listed by the source limits assumed, chain 2 of 2): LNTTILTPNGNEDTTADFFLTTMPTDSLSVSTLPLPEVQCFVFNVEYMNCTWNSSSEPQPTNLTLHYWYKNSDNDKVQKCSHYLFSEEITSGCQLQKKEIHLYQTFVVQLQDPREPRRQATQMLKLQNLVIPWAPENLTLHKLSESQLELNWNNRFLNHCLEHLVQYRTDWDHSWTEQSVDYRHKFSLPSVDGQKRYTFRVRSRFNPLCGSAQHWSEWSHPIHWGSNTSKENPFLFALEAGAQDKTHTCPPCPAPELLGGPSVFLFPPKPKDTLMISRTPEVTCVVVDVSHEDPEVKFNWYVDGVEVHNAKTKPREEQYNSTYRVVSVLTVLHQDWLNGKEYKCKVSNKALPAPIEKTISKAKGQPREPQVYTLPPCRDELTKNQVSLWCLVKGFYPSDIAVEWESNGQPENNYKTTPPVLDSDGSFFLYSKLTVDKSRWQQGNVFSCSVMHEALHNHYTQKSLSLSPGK
Test: SPR (Biacore), IL-2Rβ/γ-Fc captured on Protein A chip, 1:1 model
Procedure: The Protein A sensor chip (GE, Cat #29127556) of the Biacore instrument (Biacore T200, GE) was used to capture IL-2Rβ/γ-Fc, wherein IL-2Rβ/γ-Fc was diluted with 1×HBS-EP to 1 μg/mL, and flowed at a flow rate of 10 μL/min for 30 seconds. […] The Biacore instrument (Biacore X100, GE) was used to detect the reaction in real time, to obtain association and dissociation curves. After each cycle of dissociation was completed, the chip was washed and regenerated with 10 mM Gly-HCl pH 1.5.

Kd [nM]	koff [s⁻¹]	kon [M⁻¹ s⁻¹]	Binder
0.253	0.000135	533000	B1
0.261	0.000215	822000	B2
0.288	9.68e-05	336000	B3
0.224	0.000206	920000	B4
0.344	0.000222	646000	B5
0.266	0.00043	1.62e+06	B9
0.302	0.00015	498000	B6
0.509	0.000436	856000	B7

Biological target: T4, his-tagged human IL-2Rα recombinant …
Test: ELISA, his-tagged IL-2Rα coated, HRP anti-IL-2 polyclonal detection
Procedure: 96-well microtiter plate was coated with 2 μg/mL his-tagged IL-2Rα recombinant protein (SinoBiological, Cat #10165-H08H), and incubated overnight at 4° C. The plate was washed with washing solution for three times, 250 μl per well. For each time of washing, the plate was shaken for 10 seconds to ensure sufficient washing. 200 μl/well blocking solution was added and incubated at room temperature for 2 hours. The plate was washed with washing solution for three times, 250 μl per well. For each time of washing, the plate was shaken for 10 seconds to ensure sufficient washing. […] The plate was incubated for 1 hour at room temperature. The plate was washed with washing solution for three times, 250 μl per well. […] The plate was incubated for 1 hour at room temperature. The plate was washed with washing solution for three times, 250 μl per well. 100 μl TMB was added to each well, and the reaction was performed for 15 minutes in the dark. 50 μl of 0.16 M sulfuric acid was added to each well.

EC50 [nM]	Binder
1.53	B1
0.6	B3
0.87	B6
